Target: T1, Myo5 SH3 (MYO5_YEAST), Q04439
T1 chain: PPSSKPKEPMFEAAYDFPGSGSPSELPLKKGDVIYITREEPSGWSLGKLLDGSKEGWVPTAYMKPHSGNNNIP
Assay: SPOT array

With YEVTFDGPNDPLHP [YLL028W 124-137] the normalised SPOT signal, Boehringer light units (BLU); mean over the file's lines of this peptide was 111.

VPNRWATPLDPSIL [YAL015C 71-84] showed a normalised SPOT signal, Boehringer light units (BLU); mean over the file's lines of this peptide of 126.

With VPLPFGIPPFPMFP [YKL059C 406-419] the normalised SPOT signal, Boehringer light units (BLU); mean over the file's lines of this peptide was 11600.

With YFKELPPPSDPSSI [YDL108W 289-302] the normalised SPOT signal, Boehringer light units (BLU); mean over the file's lines of this peptide was 165.

YENSHSLPLDPQSP [YLR416C 105-118] gave a normalised SPOT signal, Boehringer light units (BLU); mean over the file's lines of this peptide of 122.

For YEQTMKSPKYPSTY [YDR314C 535-548], the normalised SPOT signal, Boehringer light units (BLU); mean over the file's lines of this peptide was 138.

VPSAFTAPPVPTKK [YDR517W 312-325] was tested, and the normalised SPOT signal, Boehringer light units (BLU); mean over the file's lines of this peptide was 358.

In the case of YEADYVIPVLPGSH [YNL262W 2031-2044], the normalised SPOT signal, Boehringer light units (BLU); mean over the file's lines of this peptide is reported as 125.

Binder YASQYSRPDGPILL [YGR088W 39-52] has a normalised SPOT signal, Boehringer light units (BLU); mean over the file's lines of this peptide of 114.

In the case of VPIIFEIPFNPIYK [YKL205W 1001-1014], the normalised SPOT signal, Boehringer light units (BLU); mean over the file's lines of this peptide is reported as 215.

For YEGRFWNPENPYKF [YEL011W 167-180], the normalised SPOT signal, Boehringer light units (BLU); mean over the file's lines of this peptide was 163.

For VPDSYKPPKNPIVF [YDR058C 17-30], the normalised SPOT signal, Boehringer light units (BLU); mean over the file's lines of this peptide was 829.

With YEKALHFPAGPKST [YFL042C 472-485] the normalised SPOT signal, Boehringer light units (BLU); mean over the file's lines of this peptide was 147.

Work on VLSKFIKPKNPSLV [YPL226W 187-200] yielded a normalised SPOT signal, Boehringer light units (BLU); mean over the file's lines of this peptide of 320.

In the case of YFKNMSNPKIPATK [YIL125W 74-87], the normalised SPOT signal, Boehringer light units (BLU); mean over the file's lines of this peptide is reported as 128.

For VPAILMTPISPRSL [YPL188W 282-295], the normalised SPOT signal, Boehringer light units (BLU); mean over the file's lines of this peptide was 138.

With VPPNFNAPPNPMAF [YNL118C 392-405] the normalised SPOT signal, Boehringer light units (BLU); mean over the file's lines of this peptide was 1570.

WLLPYSLPMHPGRW [YHR072W 218-231] gave a normalised SPOT signal, Boehringer light units (BLU); mean over the file's lines of this peptide of 706.

VPDQLLTPLQPYTI [YJL127C 32-45] was tested, and the normalised SPOT signal, Boehringer light units (BLU); mean over the file's lines of this peptide was 168.

Binder VPGEHFAPMGPNGQ [YHR098C 250-263] has a normalised SPOT signal, Boehringer light units (BLU); mean over the file's lines of this peptide of 64.7.

VLTKMNAPQKPEDI [YCR004C 46-59] showed a normalised SPOT signal, Boehringer light units (BLU); mean over the file's lines of this peptide of 296.

VPGGMSIPGAPQGA [YPL169C 514-527] was tested, and the normalised SPOT signal, Boehringer light units (BLU); mean over the file's lines of this peptide was 140.

Work on WLSKLVLPPPPVSI [YHR021W-A 81-94] yielded a normalised SPOT signal, Boehringer light units (BLU); mean over the file's lines of this peptide of 4130.
